Measured values from publication PMC10499876, “Arabidopsis TCP4 transcription factor inhibits high temperature-induced homeotic conversion of ovules”.

Target: T1, TCP4 DNA binding domain (Arabidopsis thaliana, UniProt Q8LPR5 45-103)
T1 sequence: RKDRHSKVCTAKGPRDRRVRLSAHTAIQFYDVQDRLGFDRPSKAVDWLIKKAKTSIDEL
Assay: EMSA; EMSA: ~180 ng protein + ~200 ng dsDNA, 4 °C 20 min; DNA annealed in 25 mM Tris, 100 mM NaCl pH 8.0; 7% native PAGE in 0.5x TBE, ethidium bromide; binding buffer not stated
Settings: protein: recombinant; tags: C-terminal His (pET-21b); chain copies: 2; blunt

B1: CRC promoter probe (dsDNA)
DNA 1: CAGGAAAGGACCATTCTTAA
DNA 2: TTAAGAATGGTCCTTTCCTG
binding result: binds
